From patent publication US20250026813A1 (published 2025)

Tests used:
[1] = molecular target: full soluble spike trimer of SARS-CoV-2 virus (stabilised, in-house) (SARS-CoV-2, UniProt P0DTC2 14-1208; P10104 458-484)
[2] = molecular target: SARS-CoV-2 spike protein trimer stabilised by double proline (PP) mutation (FIG. 2B sequence) with C (SARS-CoV-2, UniProt P0DTC2 14-1208; P10104 458-484)

B1: IMPI-059 (antibody, V domains shown)
VH: EVQLVESGGGLIQPGGSLRLSCAASGFTVSSIYMSWVRQAPGKGLEWVSIIYSRGSTDYADSVKGRFTISRDISKNTLYLQMNSLRAEDTAVYYCARDGTMVRGVHAFDIWGQGTMVTVSS
VL: DIQMTQSPPSLSASIGDRVTITCQASQDISNYLNWYQQKPGKAPKLLIYDASNLETGVPSRFSGSGSGTDFTLTISNLQPEDIVTYYCQQYDNLPSSFGQGTKLEIK
IC50 [1]: 8.38 nM

B2: IMPI-013 (antibody, V domains shown)
VH: EVQLVESGGGLVQPGRSLRLSCAASGFTFDDYAMHWVRQTPGKGLEWVSGISWNSGSIGYADSVKGRFTISRDNAKNSLYLQMNSLRAEDTALYYCTKDLGLGIGFYYGLDVWGQGTTVTVSS
VL: AIQMTQSPSSLSTSVGDRVTITCRASQGIRNDLGWYQLKPGKAPKLLIYDASTLQSGVPSRFSGSGSGTDFTLTISSLEPEDLATYYCLHHYTYPWTFGHGTKVELK
Kd [2]: 0.299 nM

B3: IMPI-037 (antibody, V domains shown)
VH: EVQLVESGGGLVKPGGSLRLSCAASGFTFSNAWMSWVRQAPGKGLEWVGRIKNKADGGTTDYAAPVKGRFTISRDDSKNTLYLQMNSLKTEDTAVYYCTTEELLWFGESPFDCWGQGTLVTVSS
VL: DIQLTQSPSFLSASVGDRVTITCWASQGINSYLAWYQQKPGKAPKLLIYAASTLQSGVPSRFSGSGSGTEFTLTISSLQPEDFTTYYCQQFNDYPRTFGPGTKVEIK
IC50 [1]: 13.7 nM
